In the experiment the target is integrin αvβ3 (mouse (endogenous in mouse middle …, UniProt P43406 31-1044; O54890 26-787). As to the kind of experiment: cell-based or functional assay.

Bridges are numbered along the chain shown (N, C = ends).

Sequence of integrin αvβ3 (mouse (P43406 31-1044, chain 1 of 2): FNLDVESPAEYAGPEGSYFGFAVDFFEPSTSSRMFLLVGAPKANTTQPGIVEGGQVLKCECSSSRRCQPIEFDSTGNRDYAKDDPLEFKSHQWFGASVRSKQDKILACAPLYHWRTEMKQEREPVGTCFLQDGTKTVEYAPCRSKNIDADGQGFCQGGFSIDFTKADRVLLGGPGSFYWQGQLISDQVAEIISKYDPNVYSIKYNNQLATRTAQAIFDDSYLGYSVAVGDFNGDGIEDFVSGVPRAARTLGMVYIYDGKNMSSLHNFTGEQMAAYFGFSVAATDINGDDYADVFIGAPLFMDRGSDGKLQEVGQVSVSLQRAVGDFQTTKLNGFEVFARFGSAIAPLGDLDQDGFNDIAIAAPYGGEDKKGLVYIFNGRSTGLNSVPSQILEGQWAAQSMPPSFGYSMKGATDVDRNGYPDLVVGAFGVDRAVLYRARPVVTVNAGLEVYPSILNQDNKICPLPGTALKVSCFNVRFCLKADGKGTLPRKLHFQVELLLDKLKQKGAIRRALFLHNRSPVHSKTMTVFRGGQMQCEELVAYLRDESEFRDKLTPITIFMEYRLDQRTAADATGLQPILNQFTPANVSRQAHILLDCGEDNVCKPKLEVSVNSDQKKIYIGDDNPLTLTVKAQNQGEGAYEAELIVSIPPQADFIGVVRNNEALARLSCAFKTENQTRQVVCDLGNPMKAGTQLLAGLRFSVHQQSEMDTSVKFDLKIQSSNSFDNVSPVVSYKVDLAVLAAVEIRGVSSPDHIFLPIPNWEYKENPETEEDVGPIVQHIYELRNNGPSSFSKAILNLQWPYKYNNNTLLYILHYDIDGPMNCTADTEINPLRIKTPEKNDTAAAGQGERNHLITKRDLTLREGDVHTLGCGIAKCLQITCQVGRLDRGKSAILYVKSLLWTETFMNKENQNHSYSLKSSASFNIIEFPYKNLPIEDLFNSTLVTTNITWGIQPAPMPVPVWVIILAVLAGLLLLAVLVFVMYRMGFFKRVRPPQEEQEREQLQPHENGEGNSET
Sequence of integrin αvβ3 (mouse (O54890 26-787, chain 2 of 2): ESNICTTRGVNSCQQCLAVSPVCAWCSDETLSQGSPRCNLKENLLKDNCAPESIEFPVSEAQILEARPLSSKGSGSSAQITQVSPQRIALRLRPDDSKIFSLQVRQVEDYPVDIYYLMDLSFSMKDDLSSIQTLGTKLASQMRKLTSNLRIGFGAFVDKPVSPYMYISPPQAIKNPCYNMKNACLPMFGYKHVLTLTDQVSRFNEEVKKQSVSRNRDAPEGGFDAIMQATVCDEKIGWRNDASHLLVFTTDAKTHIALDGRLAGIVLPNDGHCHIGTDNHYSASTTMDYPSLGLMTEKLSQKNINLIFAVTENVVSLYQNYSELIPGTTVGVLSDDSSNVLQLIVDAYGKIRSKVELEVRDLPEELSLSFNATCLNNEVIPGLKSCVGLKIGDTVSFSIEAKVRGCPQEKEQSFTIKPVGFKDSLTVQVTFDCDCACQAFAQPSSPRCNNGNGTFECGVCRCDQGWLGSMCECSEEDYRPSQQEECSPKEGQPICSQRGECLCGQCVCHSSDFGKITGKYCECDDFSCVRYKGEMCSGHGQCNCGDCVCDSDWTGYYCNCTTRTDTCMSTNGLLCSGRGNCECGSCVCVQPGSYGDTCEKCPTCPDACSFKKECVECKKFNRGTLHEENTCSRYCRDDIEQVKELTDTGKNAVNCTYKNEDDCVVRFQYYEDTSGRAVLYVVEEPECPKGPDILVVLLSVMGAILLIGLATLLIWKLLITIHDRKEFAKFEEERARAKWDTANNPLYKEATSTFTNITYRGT

In the case of H-GCRGDC-NH2 (disulfide 2-6 (inferred)) [H-GCRGDC-NH2 (cRGD)], the “adherence of CFSE-labelled washed platelets to the luminal surface of the MCA under flow after cRGD-MPs, compared to cRGD peptide alone” value is 3 fold.

The values are drawn from PMC6825169, “Extracellular vesicle integrins act as a nexus for platelet adhesion in cerebral microvessels” (Scientific Reports, 2019).
